Measurements taken from publication PMC5430726 (2017).

Target: T1, SLP65 peptide (Homo sapiens, UniProt Q8WV28)
T1 chain: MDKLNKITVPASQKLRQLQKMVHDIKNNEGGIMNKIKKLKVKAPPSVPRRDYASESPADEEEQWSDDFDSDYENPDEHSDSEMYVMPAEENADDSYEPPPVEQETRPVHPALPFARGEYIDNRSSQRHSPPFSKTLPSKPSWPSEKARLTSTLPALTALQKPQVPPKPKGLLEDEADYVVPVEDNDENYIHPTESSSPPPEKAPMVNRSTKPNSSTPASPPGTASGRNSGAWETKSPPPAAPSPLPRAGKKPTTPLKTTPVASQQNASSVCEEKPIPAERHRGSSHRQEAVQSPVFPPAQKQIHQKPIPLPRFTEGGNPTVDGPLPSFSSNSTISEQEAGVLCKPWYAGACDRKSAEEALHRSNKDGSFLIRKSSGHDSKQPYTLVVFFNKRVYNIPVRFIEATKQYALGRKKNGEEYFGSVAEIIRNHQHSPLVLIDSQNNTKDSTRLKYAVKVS
Assay: ITC

- Kd: 33.3 µM
B1: Grb2 SH3C (protein)
chain: QQPTYVQALFDFDPQEDGELGFRRGDFIHVMDNSDPNWWKGACHGQTGMFPRNYVTPVNR
modifications: Grb2 SH3C pre-bound to Vav SH3N
